Assay results taken from article PMC13245405, “Stable inheritance of the Streptomyces linear plasmid SCP1 by dual ParABS partition systems” (Nucleic Acids Research, 2026).

Key:
ParB2 [1] = target: T1, ParB2 (Streptomyces coelicolor, UniProt Q9ACT0, R57A); assay: CTP binding test in supplement; settings: 1 mM CTP with parS2 if DSF as in methods
T1 construct: ParB2-His6, C-terminal His6 kept, pET21b, codon-optimized synthetic gene, E. coli Rosetta (BL21 DE3) pLysS; dimer

ParB2 [2] = target: T2, ParB2 (Streptomyces coelicolor, UniProt Q9ACT0, N55A); assay: CTP binding test in supplement; settings: 1 mM CTP with parS2 if DSF as in methods
T2 construct: ParB2-His6, C-terminal His6 kept, pET21b, codon-optimized synthetic gene, E. coli Rosetta (BL21 DE3) pLysS; dimer

ParB1 [3] = target: T3, ParB1 (Streptomyces coelicolor, UniProt Q9AD11); assay: isothermal titration calorimetry; assay type: binding
T3 construct: ParB1-His6, C-terminal His6 kept, pET21b, codon-optimized synthetic gene, E. coli Rosetta (BL21 DE3) pLysS; dimer

ParB1 [4] = target: T4, ParB1 (Streptomyces coelicolor, UniProt Q9AD11, N54A); assay: CTP binding test in supplement; settings: 1 mM CTP with parS1 if DSF as in methods
T4 construct: ParB1-His6, C-terminal His6 kept, pET21b, codon-optimized synthetic gene, E. coli Rosetta (BL21 DE3) pLysS; dimer

ParB1 [5] = target: T5, ParB1 (Streptomyces coelicolor, UniProt Q9AD11, S109A); assay: CTP binding test in supplement; settings: 1 mM CTP with parS1 if DSF as in methods
T5 construct: ParB1-His6, C-terminal His6 kept, pET21b, codon-optimized synthetic gene, E. coli Rosetta (BL21 DE3) pLysS; dimer

ParB1 [6] = target: T6, ParB1 (Streptomyces coelicolor, UniProt Q9AD11, S110A); assay: CTP binding test in supplement; settings: 1 mM CTP with parS1 if DSF as in methods
T6 construct: ParB1-His6, C-terminal His6 kept, pET21b, codon-optimized synthetic gene, E. coli Rosetta (BL21 DE3) pLysS; dimer

ParB2 [7] = target: T7, ParB2 (Streptomyces coelicolor, UniProt Q9ACT0); assay: differential scanning fluorimetry (Tycho); assay type: binding; settings: 1 mM CTP, 4 µM ParB2 dimer, with 2 µM parS2 DNA; 100 mM Tris-HCl, 250 mM NaCl, 1 mM MgCl2, 5% glycerol, pH 8.0
T7 construct: ParB2-His6, C-terminal His6 kept, pET21b, codon-optimized synthetic gene, E. coli Rosetta (BL21 DE3) pLysS; dimer

ParB2 [8] = target: T7, ParB2; assay: isothermal titration calorimetry; assay type: binding
[9] = target: T8, ParB1-His6 WT (Streptomyces coelicolor A3(2), plasmid SCP1) (UniProt Q9AD11); assay: BLI; settings: 1 mM CTP; BLI: 100 mM Tris-HCl pH 8, 100 mM NaCl, 1 mM MgCl2, 0.005% Tween 20, 25 C; ParB 0.0625-2 uM (50 bp) or 1 uM (190 bp)
T8 sequence: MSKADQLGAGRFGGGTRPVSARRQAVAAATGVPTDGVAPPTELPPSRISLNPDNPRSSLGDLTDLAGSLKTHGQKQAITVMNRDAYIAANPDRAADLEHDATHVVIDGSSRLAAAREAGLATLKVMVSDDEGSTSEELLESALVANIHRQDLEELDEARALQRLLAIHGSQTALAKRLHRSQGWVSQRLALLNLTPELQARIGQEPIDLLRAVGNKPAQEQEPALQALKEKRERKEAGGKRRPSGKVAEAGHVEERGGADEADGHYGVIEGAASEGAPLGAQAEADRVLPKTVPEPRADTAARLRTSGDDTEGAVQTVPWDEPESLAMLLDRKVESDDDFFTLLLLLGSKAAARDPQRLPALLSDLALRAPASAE

[10] = target: T9, ParB2-His6 WT (Streptomyces coelicolor A3(2), plasmid SCP1) (UniProt Q9ACT0); assay: BLI; settings: 1 mM CTP; BLI: 100 mM Tris-HCl pH 8, 100 mM NaCl, 1 mM MgCl2, 0.005% Tween 20, 25 C; ParB 0.0625-2 uM (50 bp) or 1 uM (190 bp)
T9 sequence: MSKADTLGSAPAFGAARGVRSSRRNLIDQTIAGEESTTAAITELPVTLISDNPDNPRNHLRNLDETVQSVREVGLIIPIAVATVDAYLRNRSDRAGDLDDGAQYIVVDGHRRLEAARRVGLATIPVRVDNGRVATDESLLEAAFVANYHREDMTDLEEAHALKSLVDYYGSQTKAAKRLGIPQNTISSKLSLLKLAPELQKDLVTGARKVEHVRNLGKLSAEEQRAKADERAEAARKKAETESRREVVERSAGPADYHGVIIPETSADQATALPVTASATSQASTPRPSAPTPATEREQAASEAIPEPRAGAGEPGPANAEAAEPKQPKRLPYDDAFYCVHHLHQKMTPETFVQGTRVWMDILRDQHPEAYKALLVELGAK

His6-ScParB WT = target: T10, His6-ScParB WT (Streptomyces coelicolor, UniProt Q9S6U1 1-328); assay: BLI; no CTP; BLI: 100 mM Tris-HCl pH 8, 100 mM NaCl, 1 mM MgCl2, 0.005% Tween 20, 25 C; ParB 0.0625-2 uM (50 bp) or 1 uM (190 bp); settings: protein: recombinant, tags: N-terminal His6, chain copies: 2, label: 5' biotin on strand 1, blunt
T10 sequence: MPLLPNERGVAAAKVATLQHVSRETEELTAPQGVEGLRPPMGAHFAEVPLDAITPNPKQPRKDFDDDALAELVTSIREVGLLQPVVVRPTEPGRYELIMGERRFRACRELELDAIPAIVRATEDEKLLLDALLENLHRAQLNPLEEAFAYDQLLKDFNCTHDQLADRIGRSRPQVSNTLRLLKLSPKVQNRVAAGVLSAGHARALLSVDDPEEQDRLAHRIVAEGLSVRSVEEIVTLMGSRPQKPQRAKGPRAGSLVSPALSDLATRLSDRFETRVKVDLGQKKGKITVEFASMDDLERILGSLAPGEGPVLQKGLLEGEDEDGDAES

ParB1-His6 WT = target: T11, ParB1-His6 WT (Streptomyces coelicolor A3(2), plasmid …, UniProt Q9AD11 1-375); assay: as above; settings: protein: recombinant, tags: C-terminal His6, chain copies: 2, label: 5' biotin on strand 1, blunt
T11 sequence: T8 sequence

ParB2-His6 WT = target: T12, ParB2-His6 WT (Streptomyces coelicolor A3(2), plasmid …, UniProt Q9ACT0 1-381); assay: as above; settings: protein: recombinant; tags: C-terminal His6; chain copies: 2; label: 5' biotin on strand 1; blunt
T12 sequence: T9 sequence

[11] = printed strands give one G:G mismatch at site centre

T1 sequence (Q9ACT0 entry or part of it R57A): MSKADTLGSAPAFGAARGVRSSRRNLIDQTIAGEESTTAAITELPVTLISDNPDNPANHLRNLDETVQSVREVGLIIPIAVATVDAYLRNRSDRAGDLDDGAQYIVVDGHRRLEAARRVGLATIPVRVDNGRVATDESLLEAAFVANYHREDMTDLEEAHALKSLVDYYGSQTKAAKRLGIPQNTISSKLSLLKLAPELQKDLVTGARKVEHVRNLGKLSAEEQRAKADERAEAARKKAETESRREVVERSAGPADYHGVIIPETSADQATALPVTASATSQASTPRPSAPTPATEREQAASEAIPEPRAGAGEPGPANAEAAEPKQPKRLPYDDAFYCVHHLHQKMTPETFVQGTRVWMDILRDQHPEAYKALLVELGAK
T2 sequence (Q9ACT0 entry or part of it N55A): as the sequence (Q9ACT0 entry or part of it R57A) above, with N55A, A57R counted along it
T4 sequence (Q9AD11 entry or part of it N54A): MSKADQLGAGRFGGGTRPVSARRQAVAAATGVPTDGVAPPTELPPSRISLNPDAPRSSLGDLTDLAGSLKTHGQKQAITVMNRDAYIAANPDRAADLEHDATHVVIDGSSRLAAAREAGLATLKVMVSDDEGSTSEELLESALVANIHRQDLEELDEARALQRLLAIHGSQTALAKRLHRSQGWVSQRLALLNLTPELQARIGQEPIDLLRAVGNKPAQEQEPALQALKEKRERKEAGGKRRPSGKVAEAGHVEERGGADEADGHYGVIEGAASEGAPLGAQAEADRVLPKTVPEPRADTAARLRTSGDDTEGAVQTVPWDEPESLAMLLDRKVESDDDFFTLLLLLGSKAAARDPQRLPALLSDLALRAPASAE
T6 sequence (Q9AD11 entry or part of it S110A): as the sequence (Q9AD11 entry or part of it N54A) above, with A54N, S110A counted along it
T5 sequence (Q9AD11 entry or part of it S109A): as the sequence (Q9AD11 entry or part of it N54A) above, with A54N, S109A counted along it

Nc1ccn([C@@H]2O[C@H](COP(=O)(O)OP(=O)(O)OP(=O)(O)O)[C@@H](O)[C@H]2O)c(=O)n1 [CTP]
CTP binding test in supplement (ParB2 [1]): ParB1 N54A, S109A, and S110A or ParB2 N55A and R57A still bound CTP | CTP binding test in supplement (ParB2 [2]): ParB1 N54A, S109A, and S110A or ParB2 N55A and R57A still bound CTP | Kd (ParB1 [3]): 31.6 ± 17.8 µM | CTP binding test in supplement (ParB1 [4]): ParB1 N54A, S109A, and S110A or ParB2 N55A and R57A still bound CTP | CTP binding test in supplement (ParB1 [5]): ParB1 N54A, S109A, and S110A or ParB2 N55A and R57A still bound CTP | CTP binding test in supplement (ParB1 [6]): ParB1 N54A, S109A, and S110A or ParB2 N55A and R57A still bound CTP | differential scanning fluorimetry (Tycho) (ParB2 [7]): only when ParB1 or ParB2 was incubated with both their cognate parS site and CTP

Nc1ccn([C@@H]2O[C@H](COP(=O)(O)OP(=O)(O)OP(O)(O)=S)[C@@H](O)[C@H]2O)c(=O)n1 [CTPγS]
Kd (ParB1 [3]): 28.2 ± 5.9 µM | Kd (ParB2 [8]): 12.5 ± 5.05 µM

parS1 190-bp closed loop
binding signal (fold BLI signal vs no CTP) [9]: 4

parS2 190-bp closed loop
binding signal (fold BLI signal vs no CTP) [10]: 3

B1: parS1 50 bp (dsDNA)
DNA 1: CTTCGGACGCGGCACCCTCTATTACGGCGTAATGGCCGTCTGCCTCATCC
DNA 2: GGATGAGGCAGACGGCCATTACGGCGTAATAGAGGGTGCCGCGTCCGAAG
binding result (His6-ScParB WT; [11]): no binding | Kd (ParB1-His6 WT; [11]): 0.386 ± 0.042 µM

B2: scrambled parS 50 bp (dsDNA)
DNA 1: GGCCCTGGGTATTCCCTCCGGGACTCGAAGGACGAACGACGCTCGCACAT
DNA 2: ATGTGCGAGCGTCGTTCGTCCTTCGAGTCCCGGAGGGAATACCCAGGGCC
binding result (ParB2-His6 WT): no binding | binding result (His6-ScParB WT): no binding | binding result (ParB1-His6 WT): no binding

B3: parS2 50 bp (dsDNA)
DNA 1: AGCAGGCCCCGCCGATTATCACGGCGTGATAATCCCGGAGACGTCCGCTG
DNA 2: CAGCGGACGTCTCCGGGATTATCACGCCGTGATAATCGGCGGGGCCTGCT
Kd (ParB2-His6 WT): 0.377 ± 0.055 µM | binding result (His6-ScParB WT): no binding

B4: ScparS 50 bp (dsDNA)
DNA 1: TCGGGGATGGTGTTTCGCGTTTCACGTGAAACAACCCCAGCGTACCGGGC
DNA 2: GCCCGGTACGCTGGGGTTGTTTCACGTGAAACGCGAAACACCATCCCCGA
binding result (ParB2-His6 WT): no binding | Kd (His6-ScParB WT): 0.331 ± 0.064 µM | binding result (ParB1-His6 WT): no binding
